Patent US20220153854A1 (Ablynx, published 2022)
Positions count from the first letter of the chain named.

Tests used:
[1] = biological target: human IL-13 (human, UniProt P35225 35-146, limits assumed); assay: cell-based or functional assay
[2] = biological target: T1, cyno IL-13 (cynomolgus monkey, UniProt Q0PW92 21-132); assay: cell-based or functional assay
[3] = biological target: T2, rhesus IL-13 (rhesus monkey, UniProt Q864V6 19-132, limits assumed); assay: cell-based or functional assay
[4] = biological target: T3, human OX40L (human, UniProt P23510 51-183); assay: cell-based or functional assay
T3 sequence (looked up): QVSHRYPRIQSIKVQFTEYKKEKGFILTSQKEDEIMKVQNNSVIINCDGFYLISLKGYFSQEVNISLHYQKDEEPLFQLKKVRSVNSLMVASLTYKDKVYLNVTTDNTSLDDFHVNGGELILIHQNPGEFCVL

[5] = biological target: T4, cyno serum albumin (cynomolgus monkey); assay: Gyrolab in-solution affinity, 2 h incubation; 95% CI 8.3-10.9 nM
T4 construct: also called cyno SA; cynomolgus monkey serum albumin
T4 sequence (A2V9Z4 25-608): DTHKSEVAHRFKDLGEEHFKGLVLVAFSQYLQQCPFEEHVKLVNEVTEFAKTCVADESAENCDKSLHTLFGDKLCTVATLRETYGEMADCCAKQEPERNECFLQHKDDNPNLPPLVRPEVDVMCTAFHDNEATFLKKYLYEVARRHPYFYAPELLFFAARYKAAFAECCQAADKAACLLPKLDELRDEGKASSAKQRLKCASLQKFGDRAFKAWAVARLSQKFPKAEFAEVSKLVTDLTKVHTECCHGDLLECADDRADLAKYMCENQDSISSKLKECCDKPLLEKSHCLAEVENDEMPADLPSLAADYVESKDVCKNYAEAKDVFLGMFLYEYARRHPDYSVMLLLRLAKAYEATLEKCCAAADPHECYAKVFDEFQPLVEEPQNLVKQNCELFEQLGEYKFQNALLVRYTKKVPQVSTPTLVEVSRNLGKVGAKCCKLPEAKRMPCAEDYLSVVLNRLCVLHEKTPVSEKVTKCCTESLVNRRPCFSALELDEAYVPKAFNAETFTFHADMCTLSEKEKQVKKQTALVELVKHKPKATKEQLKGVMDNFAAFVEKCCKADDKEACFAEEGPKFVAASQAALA
Method: (§1) Under receptor-controlled measurements a serial dilution of OX40L (ranging from 1.3 μM-0.031 μM), IL-13 (ranging from 0.1 μM-0.25 fM), or serum albumin (ranging from 100 μM-3.2 μM) and a fixed amount of ISVD construct F027100187 (5 nM in case of OX40L, […] in case of IL-13 and 30 nM in case of HSA and cyno SA) were mixed to allow interaction and incubated for either 24 or 48 hours (in case of OX40L and IL-13) or 2 hours (in case of serum albumin) to reach equilibrium.
(§2) Biotinylated human OX40L/IL-13/serum albumin was captured in the microstructures of a Gyrolab Bioaffy 1000 CD, which contains columns of beads and was used as a molecular probe to capture free F027100187 from the equilibrated solution. The mixture of OX40L/IL13/serum albumin and F027100187 (containing free OX40UIL-13/serum albumin, free F027100187 and OX40L/IL13/serum albumin—F027100187 complexes) was allowed to flow through the beads, and a small percentage of free F027100187 was captured, which is proportional to the free ISVD construct concentration. A fluorescently labeled anti-ISVD antibody, ABH0086-Alexa647, was then injected to label any captured F027100187 and after rinsing away excess of fluorescent probe, the change in fluorescence was determined. Fitting of the dilution series was done using Gyrolab Analysis software, where KD- and receptor-controlled curves were analyzed to determine the KD value.

[6] = biological target: T5, cyno OX40L (cynomolgus monkey, UniProt G7NVH7 51-183); assay: Gyrolab in-solution affinity, 24 h incubation; 95% CI 101-156 pM
T5 construct: also called cyOX40L; cynomolgus monkey OX40L
T5 sequence: T3 sequence (looked up) with R5Q, K23E
Method: as §1, §2

[7] = biological target: T3, human OX40L; assay: Gyrolab in-solution affinity, 24 h incubation; 95% CI 108-141 pM
Method: as §1, §2

[8] = biological target: T1, cyno IL-13; assay: Gyrolab in-solution affinity, 48 h incubation; 95% CI 4.7-7.1 pM
Method: as §1, §2

[9] = biological target: T1, cyno IL-13; assay: Gyrolab in-solution affinity, 48 h incubation; 95% CI 7.0-9.3 pM
Method: as §1, §2

[10] = biological target: T2, rhesus IL-13; assay: Gyrolab in-solution affinity, 48 h incubation; 95% CI 6.8-39.6 pM
Method: as §1, §2

[11] = biological target: T1, cyno IL-13; assay: Gyrolab in-solution affinity, 48 h incubation; 95% CI 9.5-13.9 pM
Method: as §1, §2

[12] = biological target: T6, membrane bound human OX40L on CHO-KI cells (human, UniProt P23510 1-183); assay: flow cytometry on fixed CHO-KI cells expressing human OX40L, 48 h incubation
T6 construct: whole, on cells; also called CHO-KI cells expressing human OX40L
T6 sequence (looked up): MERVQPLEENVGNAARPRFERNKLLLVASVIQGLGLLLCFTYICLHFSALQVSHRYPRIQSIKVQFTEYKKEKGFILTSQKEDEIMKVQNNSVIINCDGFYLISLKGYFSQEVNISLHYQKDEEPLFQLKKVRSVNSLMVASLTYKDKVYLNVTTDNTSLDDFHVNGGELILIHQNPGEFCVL
Method: Briefly, cells were fixed with 4% paraformaldehyde and 0.1% Glutaraldehyde in PBS, seeded at a density of 1×10⁴ cells/well and incubated with a dilution series of ISVD F027100187 or reference compound anti-hOX40L mAb, named Comparator 3, starting from 100 nM […] 0.5 μM, for 48 hours at room temperature. Comparator 3 is a standard conventional monoclonal antibody directed against human OX40L, which is used as a reference throughout the Examples 1 to 12 described herein. Cells were washed 3 times and subsequently incubated with an anti-VHH mAb (ABH00119) for 30 min at 4° C., washed again, and incubated for 30 min at 4° C. with a goat anti-mouse PE or FITC labeled antibody. Samples were washed and resuspended in FACS Buffer (D-PBS with 10% FBS and 0.05% sodium azide supplemented with 5 nM TOPRO3). Cell suspensions were then analyzed on an iQuescreener. EC50 values were calculated using GraphPad Prism.

T1 sequence (Q0PW92 entry or part of it): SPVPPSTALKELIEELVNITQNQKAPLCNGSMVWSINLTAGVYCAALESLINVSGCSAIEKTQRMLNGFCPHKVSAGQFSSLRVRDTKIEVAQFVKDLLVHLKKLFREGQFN
T2 sequence (Q864V6 19-132 limits assumed): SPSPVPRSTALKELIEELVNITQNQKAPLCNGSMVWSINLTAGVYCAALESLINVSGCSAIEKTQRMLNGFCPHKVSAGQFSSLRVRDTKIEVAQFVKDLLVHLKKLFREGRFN
human IL-13, sequence (P35225 35-146 limits assumed): as the sequence (Q0PW92 entry or part of it) above, with S1G, K10R, V42M, N67S, R83H, V100L counted along it

eotaxin release assay (IC50, pM) [1]: 259 pM
eotaxin release assay (IC50, pM) [2]: 1940 pM
eotaxin release assay (IC50, pM) [3]: 858 pM
IL-5 IC50 (nM), triculture assay [4]: 1 nM
Kd [5]: 9.6 nM
Kd [6]: 0.128 nM
Kd [7]: 0.125 nM
Kd [8]: 0.0059 nM
Kd [9]: 0.0082 nM
Kd [10]: 0.0232 nM
Kd [11]: 0.0117 nM
EC50 [12]: 0.0235 nM
B1: ISVD construct F027100187 (other)
chain: DVQLVESGGGVVQPGGSLRLSCAASRSIGRYDRMGWYRHRPGEPRELVATITGGSSINYGDSVKGRFTISIDNSKNTVYLQMNSLRPEDTALYYCNFNKYQISRDTWGQGTLVTVSSGGGGSGGGSEVQLVESGGGVVQPGGSLRLSCAASGRTFSSYRMGWFRQAPGKEREFVAALSGDGYSTYTANSVKGRFTISRDNSKNTVYLQMNSLRPEDTALYYCAAKLQYVSGWSYDYPYWGQGTLVTVSSGGGGSGGGSEVQLVESGGGVVQPGGSLRLSCAASGFTFRSFGMSWVRQAPGKGPEWVSSISGSGSDTLYADSVKGRFTISRDNSKNTLYLQMNSLRPEDTALYYCTIGGSLSRSSQGTLVTVSSGGGGSGGGSEVQLVESGGGVVQPGGSLRLSCAASGFTFNNYAMKWVRQAPGKGLEWVSSITTGGGSTDYADSVKGRFTISRDNSKNTLYLQMNSLRPEDTALYYCANVPFGYYSEHFSGLSFDYRGQGTLVTVSSA
notes: Tetravalent, trispecific single-chain construct of four VHH (ISVD) domains: one against OX40L, two against IL-13, one against serum albumin; also called F0271000187; F27100187
